{"source": "paper doi:10.1101/749960", "target": "isolated C-terminal domain of FusB (FusBCTD) (Pectobacterium carotovorum LMG2410)", "experiment": "ITC"}
{"substance": "spinach ferredoxin (FerSp) (from UniProt P00221 51-147) (natural protein)", "values": [{"measurement": "Kd", "value": 8.7, "unit": "µM"}]}
